Experimental data reported in patent US20230095569A1 (ANTENGENE BIOLOGICS, published 2023).

How the values were obtained:
[1] = molecular target: T1, human Claudin18.2 (CLDN18.2) (human, UniProt P56856 1-261); assay: FACS on CHOK1-18.2 cells;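 also: antibody binding to the cells detected with a fluorescently labelled secondary antibody and read out as median fluorescence intensity by flow cytometry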
T1 construct: the cell line is named under assay; also called human Claudine18.2; hClaudin18.2
Procedure: (§1) The specificity and cross-reactivity of these subclones were confirmed with FACs analysis. […] Fluorescent dye-conjugated secondary antibody was used to detect the binding of the primary antibody with the cells. Median fluorescence intensity (MFI) was measured by FACs analysis.

[2] = molecular target: T2, human Claudin18.1 (CLDN18.1) (human, UniProt P56856 1-261); assay: FACS on CHOK1-18.1 cells;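 as to FACS MFI: test antibody binding to the cells detected by flow cytometry using a fluorescent dye-labelled secondary antibody, read out as median fluorescence intensity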;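 as to result: antibody binding to cells detected with a fluorescently labelled secondary antibody, read out as median fluorescence intensity (MFI) by flow cytometry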
T2 construct: whole, on cells; also called human Claudine18.1
Procedure: as §1

[3] = molecular target: T2, human Claudin18.1 (CLDN18.1); assay: FACS on CHOK1-18.1 cells; remark: listed apart in the source;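 as to FACS MFI: test antibody binding to the cells detected by flow cytometry using a fluorescent dye-labelled secondary antibody, read out as median fluorescence intensity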;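 as to result: antibody binding to cells detected with a fluorescently labelled secondary antibody, read out as median fluorescence intensity (MFI) by flow cytometry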
Procedure: as §1

Binder | FACS MFI [1] | FACS MFI [2] | binding result [3]
Ab29 (antibody, V domains shown, mouse monoclonal (hybridoma)) VH: EVLLQQSGPELVKPGASVKIPCKASGYTLTDHSMDWVKQSHGKSLEWIGNILPNNGGNIYNQKFRGKATLTVDKSSSTAYMELRSLTSEDTAVYNCARGHYGNSFAYWGQGTLVIVS VL: DIVMTQSPSSLTVRAGEKVTIYCKSSQSLFNSGNQKNYLTWYQQKPGQPPKLLIYWASTRESGVPHRFTGSGSGTDFTLTISSMQADDLATYYCQNGYFFPYTFGGGTKLEIK | 19100 | 97 | no binding
Ab07 (antibody, V domains shown, mouse monoclonal (hybridoma)) VH: EVQLQQSGPELVKPGASVKISCKASGYSFTDYFMNWVKQSHGKGLEWIGRINPYNGDTFYNQKFKGKATLTVDKSSSTAHMELLSLTSEDFAVYYCALYDGYWGAFVYWGQGTLVTVSA VL: DIQMTQSPASLSVFVGETVTITCRASENIYSNLAWYQQKQGKSPQLLVYAATNLADGVPSRFSGSGSGTQYSLKINSLQSEDFGSYYCQHFWGTPLTFGAGTKLELK | 13700 | 764 | no binding
Ab11 (antibody, V domains shown, mouse monoclonal (hybridoma)) VH: EVMLVESGGDLVKPGGSLKLSCAASGFTFSRYTMSWVRQTPEKRLEWVATVSVGSGNTYYLDSVKGRFTISRDNAKNTLFLQMNSLRSEDTALYYCTRLGQTQRNAVDYWGQGTSVTVSS VL: DIVMTQSPSFLSVSAGEKVTMSCKSSQSLFNGGNQKNYLAWYQQKPGQPPKLLIYGASTRDSGVPDRFTGSGSGTDFTLTISNVQAEDLAIYFCQNDHSFPLTFGAGTKLELK | 9800 | 80.8 | no binding
Ab31 (antibody, V domains shown, mouse monoclonal (hybridoma)) VH: QIQLAQSGPELKKPGETVKISCKASGYSFTNYGMNWVKQAPGKGLKWMGWINTYSGETKYADDFKGRFDFSLETSARTAYLQIKNLKIEDTATYFCARRDAMDYWGQGTSVTVSS VL: DIVMTQAAPSVPVTPGESVSISCRSSKSLLNSNGNTYLYWFLQRPGQSPQLLIYRMSNLASGVPDRFSGSGSGTAFTLRISRVEAEDVGVYYCMQHLEFPFTFGSGTKLEIK | 5520 | 97 | no binding
Ab02 (antibody, V domains shown, mouse monoclonal (hybridoma)) VH: QVQLKESGPGLVAPSQSLSITCTVSGFSLTSYAINWVRQPPGKGLEWLGVIWTGGGTNYNSALKSRLSINKDNSKSQVFLKMNSLQTDDTARYYCARFYDGYYSWFAYWGQGTLVTVSA VL: DIVMTQSHKFMSTSVGDRVSITCKASQDVGTAVTWYQQKPGQSPKLLIYWASTRHTGVPDRFTGSGSGTDFTLTISNVQSEDLADYFCQQYSSYPFTFGSGTKLEIK | 1380 | 101 | no binding
Ab34 (antibody, V domains shown, mouse monoclonal (hybridoma)) VH: EVLLQQSGPELVKPGASVKIPCKASGYTFSDYNMDWVKQSHGKSLEWIGHINPNNDNTIYNQKFKGKATLTVDKSSNTAYMDLRSLSSEDTAVYYCARGAYYGNSMDYWGQGTSVTVSS VL: DIVMTQSPSSLTVTAGERVTMSCKSSQSLLNGGNQRNYLTWYQQKPGQSPKLLIYWASTWESGVPDRFTGSGSGTDFTLTISSVQAEDLAVYYCQNAYFYPYTFGGGTKLEIK | 9070 | 91.1 | no binding
Ab30 (antibody, V domains shown, mouse monoclonal (hybridoma)) VH: QVQLKESGPGLVAPSQSLSITCTVSGFSLTKFGVNWVRQPPGKGLEWLGAIWGDGSTNYHSALISRLSINKDNSKSQVFLKLSSLQNVDTATYYCAKSGYGNAMDYWGHGTSVTVSS VL: DIVMTQSPSSLTVTTGEKVTLNCKSSQSLLNSGNLKNYLTWYQQRPGQPPKLLIYWASTRESGVPYRFTGSGSGTDFTLTISNVQAEDLAIYYCQNDYFFPFTFGSGTKLEIK | 7560 | 98.5 | no binding
Ab09 (antibody, V domains shown, mouse monoclonal (hybridoma)) VH: EVQLQQSGPELVKPGTSVKMSCKASGYTFTDYNMHWVKLSHGKSLEWIGYINPNNGGTIYNQRFKGKATLTVNKSSRTAYMDLRSLTSEDSAVYYCARQGYYGNSMDYWGQGNSVTVSS VL: DIVMTQSPSSLTVTPGERVTMSCKSSQSLLNGGNQRNYLTWYQQKPGQPPKLLIYWASTRESGVPDRFAGSGSGTDFTLTISRVQAEDLSFYYCQNSYFYPFTFGSGTKLDLR | 17100 | 95.6 | no binding
Ab35 (antibody, V domains shown, mouse monoclonal (hybridoma)) VH: DVFLQESGPGLVKPSQSLSLTCTVTGYSITSDYAWNWIRQFPGNKLEWVTYIGYSGTTSYNPSLKSRISITRDTSKNQFFLQLNSVSTEDTATYYCVRRGSYYGSYWFFDVWGAGTTVTVSS VL: QVVLSQSPAILSASPGEKVTMTCRASSSVSYMHWYQQKPGSSPKPWIYATSNLASGVPPHFSGSGSGTSYSLTISRVEAEDAATYYCQQWTSNPPTFGGGTKLEIK | 11300 | 92.6 | no binding
Ab32 (antibody, V domains shown, mouse monoclonal (hybridoma)) VH: QVQLKESGPGLVAPSQSLSITCTVSGFSLTSHGVHWVRQPPGKGLEWLGVIWAGGSINFNSALMSRLSISKDNSKNQVFLKMNSLQSDDTAMYYCARDYYYGIGLDYWGQGTTLTVS VL: DIVMTQSPSSLSVSAGEKVTMSCKSSQSLLNSGNQKNYLAWYQQKPGQPPKLLIYGASTRESGVPDRFTGSGSGTDFTLTISSVQAEDLAVYYCQNDYYYPFTFGSGTKLEIK | 8730 | 172 | no binding
Ab06 (antibody, V domains shown, mouse monoclonal (hybridoma)) VH: EVQLVASGGGLVKPGGSLKLSCAASGITFRSYAMSWVRQTPEKRLEWVATITDGGSYIFYPDNVKGRFTISGDHAKNNLYLQMSHLKSEDTALYFCVRLYYGNSFAYWGQGTLVTVSA VL: DIVMTQSPSSLTVTAGEKVTLNCKSSQSLFNSGNQKNYLTWYQQKPGQPPKLLIYWASTRESGVPDRFTGSGSGTDFTLTFSSVQAEDLAVYYCQNAYIYPFTFGSGTKLEIK | 46100 | 789 | no binding
Ab13 (antibody, V domains shown, mouse monoclonal (hybridoma)) VH: EVRLVESGGGLVKPGGSLKLSCAGSGFTFSSYTMSWVRQTPEKRLEWVATITIGVNIYYLDSVKGRFTISRDNAKNTLYLQMNSLRSEDTALYYCTRLGQTQRNAMDYWGQGTSVTVSS VL: DIVMTQSPTSLSVSAGEKVTMTCKSSQSLLNSGNQKNYLAWYQEKPGQPPKLLIYGASTRESGVPDRFTGSGSGTDFTLTISSVQAEDLAVYYCQNNHFYPLTFGAGTKLELK | 7460 | 82.3 | no binding
Ab33 (antibody, V domains shown, mouse monoclonal (hybridoma)) VH: DVNLVESGGGLVKPGGSLKLSCAASGFTFSSYTMSWVRQTPEKRLEWVATITYGRIYTYYLDSVKGRFTISRDNAKNTLYLQMSSLRSEDTAMYYCTRMITGNAMDSWGLGTSVTVSS VL: DIVMTQSPSSLTVTAGEKVTMSCKSSQSLLNSGNQKNYLTWYQQKPGQPPKLLIYWASTRESGVPDRFTGSGSGTDFTLTISGVQGEDLAVYYCQNDYSYPLTFGGGTKLELK | 8200 | 97 | no binding
Ab05 (antibody, V domains shown, mouse monoclonal (hybridoma)) VH: DVKLVESGEDLVKPGGSLKLSCAASGFTFSNYAMSWVRQTPEKRLEWVAYVSSGGDYIYYADTVKGRFIISRDNARNTLYLQMNSLRSEDTAMYYCARVYFGNSLDYWGQGTTLTVSS VL: DIVMTQSPSSLTVTAGEKVTLSCKSSQSLLNGGNQKNYLTWYQQRPGQPPKLLIYWASTRESGVPDRFTGSGSGTDFTLIISSVQAEDLAVYYCQNDYYYPWTFGGGTKLEIK | 16000 | 97 | no binding
Ab14 (antibody, V domains shown, mouse monoclonal (hybridoma)) VH: QVQLQQPGAELVKPGASVKLSCKASGYTFTSYLLHWVKQRPGQGLEWIGMIHPNGGSTNYNEKFKTKATLTVDKSSSTAYMQLSSLTSEDSAVYYCAPVYFGNSFAYWGQGTLVTVSA VL: DIVMTQSPSSLTVTAGEKVTMSCKSSQSLLNSGNQKNYLTWYQQKPGQPPKLLIYWASTRESGVPDRFTGSGSGTDFTLTISSVQAEDLAVYYCQNDYYYPFTFGSGTKLEKK | 21400 | 97 | no binding
Ab08 (antibody, V domains shown, mouse monoclonal (hybridoma)) VH: QVQLQQPGAELVKPGASVKLSCKASGYTFTSYLLHWVKQRPGQGLEWIGMIHPNGGSTNYNEKFKTKATLTVDKSSSTAYMQLSSLTSEDSAVYYCAPVYFGNSFAYWGQGTLVTVSA VL: DIVMTQSPSSLTVTAGEKVTMSCKSSQSLLNSGNQKNYLTWYQQKPGQPPKLLIYWASTRESGVPDRFTGSGSGTDFTLTISSVQAEDLAVYYCQNDYYYPFTFGSGTKLEKK | 19400 | 97 | no binding
Ab12 (antibody, V domains shown, mouse monoclonal (hybridoma)) VH: EVMLVESGGGLVKPGGSLKLSCAASGFTFSSYTMSWVRQTPEKRLEWVATIIGGYGNTYYADSVKGRFTISRDSAKNTLYLQMLSLRSEDTALYYCTRLGQTQRNAMDYWGQGTSVTVSS VL: DILMTQSPSSLSVSAGEKVTMSCKSSQSLLNSGNQRNYLAWYQQKPGQPPKLLIYGASTRESGVPDRFTGSGSGTDFTLTISSVQAEDLAVYYCQNDYYYPLTFGAGTKLELK | 8820 | 83.8 | no binding
